The values below come from the nanobody polyreactivity screen of Harvey et al. (2022).

The series can be described thus: yeast display, Sf9 membrane polyspecificity reagent, FACS + sequencing; frameworks hold sequencing errors. The essentials: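 Nanobodies from a synthetic yeast display library (Saccharomyces cerevisiae BJ5465), induced 36–48 hours with galactose, were stained 1 hour at 4 °C with 10% biotinylated, detergent-solubilized Sf9 membrane reagent, enriched on streptavidin microbeads, then FACS-sorted. Anti-HA (expression) and streptavidin (reagent binding) fluorescence set low and high (top ~1%) gates. Polyreactivity labels come from the gate of origin. Genes were colony-PCR amplified, MiSeq 2 × 250 sequenced and filtered by CDR length.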
For the sequence “QVQLVESGGGLVQAGGSLRLRCAASGFIFARYAMGWYRQAPGKERELVAAITWSGDSTYYAYSVKGRFTISRDNAKYTVYLQMNSLKPEDTAVYYCYPVSGYAKYDYWGQGTQVTVSS”, the “polyreactivity (PSR sort gate)” value was “low polyreactivity”.

For “QVQLVESGGGLVQAGGSLRLRCAASGFIFARYAMGWYRQAPGKERELVASITCRGTSTRYADSVKGRFTISRDNAKNTVYLEMNSLKPEDTAVYYCNAARLSYSWVPSEMDFWGQGTQVTVSS”, the “polyreactivity (PSR sort gate)” value is “high polyreactivity”.

Consider “QVQLVESGGGLVQAGGSLRLRCAASGFIFGPNAMGWYRQAPGKEREFDAAINWSGGTTYYADSVKGRFTISRDNAKNTVYLQMNSLKPEDTAVYYCAASLYSDVAAVATYGYYWGQGTQVTVSS”, for which the “polyreactivity (PSR sort gate)” value is reported as “low polyreactivity”.

On to “QVQLVESGGGLVQAGGSLRLRCAASGFIFNYYALGWYRQAPGKERELVAAINSGGNTYYADSVKGRFTISRDNAKNPVYIKMNTLKPEDTAVYYCNRDPESVGYDYWGQGTQVTVSS”, for which the “polyreactivity (PSR sort gate)” value is “low polyreactivity”.

Turning to “QVQLVESGGGLVQAGGSLRLRCAASGFPFDSYAMGWYRQAPGKERELVAAITSDGSTYYADSVKGRFTISRDNAKNTVYVLMNSLKPEDTAVYYCAADGISLYATAYDYWGQGTQVSVSS”, the “polyreactivity (PSR sort gate)” value was “low polyreactivity”.

Regarding “QVQLVESGGGLVQAGGSLRLRCAASGFTFGRYAMGGYRQAPGKERELVAGITSGGSTYYADSVKGRFTISLDNAKNTVYLQMNSLKPEDTAVYYCITKVISRTSERRGNGFTRYDYWGQGTQVTVSS”, the “polyreactivity (PSR sort gate)” value was “low polyreactivity”.

As to “QVQLVESGGGLVQAGGSLRLRCAASGFTFTKNAIGWYRQAPGKERELVAAITRRGSSTYYADSVKGRFTISRDNAKNTVYIQMNSLKPEDTAVYYCNADYETISGDYWGQGTQVTVSS”, the “polyreactivity (PSR sort gate)” value is recorded as “high polyreactivity”.

As for “QVQLVESGGGLVQAGGSLRLRCAASGGIFGLYTMGWYRPAPGKERELVAGISKRGTRTRYADSVKGRFTISRDNAKNTVYIQMTSLKPEDTAVYYCNADYYVSKLDYWGQGTQVTVSS”, the “polyreactivity (PSR sort gate)” value was “high polyreactivity”.

“QVQLVESGGGLVQAGGSLRLRCAASGGTFSGYTMGWYRQAPGKERELVAAINWSGGRTYYADSVKGRFTISRDNAKNTVYLQMNSLKPEDTAVYYCNKYGLYYREYDYWGQGTQVTVSS”: the “polyreactivity (PSR sort gate)” value was “high polyreactivity”.

On to “QVQLVESGGGLVQAGGSLRLRCAASGITFSGNAMGWYRQAPRKERELVAAITFSGGRTYYADSVKGSFTISRDNAKNTVYLQMNSLKPEDSAVYYCAAETPRGRWLGDYWGQGTQVTVSS”, for which the “polyreactivity (PSR sort gate)” value is “low polyreactivity”.

With “QVQLVESGGGLVQAGGSLRLRCAASGITFTINAMGWYRQAPGTEGELVATISINGGSTNYADSVKGRFTISRDNAKNTVYLQMNSLKPEDTAVYYCAADALGPFRFQFFYTTAYVYWGQGTQVTVSS”, the “polyreactivity (PSR sort gate)” value is reported as “low polyreactivity”.

As for “QVQLVESGGGLVQAGGSLRLRCAASGKTFSWYALGWYRLAPGKERELVAVITSGGSTNYADSVKWRFTISRDNAKNTVYLQMNSLKPEDTAVYYCNRRPYGFEEFDYWGQGTQVTVSS”, the “polyreactivity (PSR sort gate)” value was “low polyreactivity”.

For the sequence “QVQLVESGGGLVQAGGSLRLRCAASGLIFGTYAMGWYRQAPGKERELVATISQIGGSTYYADSVKGRFTISRDNAKNTVYLEMNSLKPEETAVYYCAVDGGEFSSYGYWGQGTQVTVSS”, the “polyreactivity (PSR sort gate)” value is reported as “low polyreactivity”.

“QVQLVESGGGLVQAGGSLRLRCAASGLIFPVYAMGWYRQEPGKEREFVAAITYDGGNTYYADSVKGRFTISRDNAKNTVYLQMNSLKPEDTAVYYCNRRYPGPDSFEHYYYYRYDYWGQGTQVTVSS”: the “polyreactivity (PSR sort gate)” value was “low polyreactivity”.

With “QVQLVESGGGLVQAGGSLRLRCAASGLTVRNYAMGWYRQAPRKERDLVAAISSGGGSTYYADSVKGRFTISRDNAKNTVYLQMNSLKPEDTAVYYCAAKRHTSLYVYYYWGQGTQVTVSS”, the “polyreactivity (PSR sort gate)” value is recorded as “high polyreactivity”.

For the sequence “QVQLVESGGGLVQAGGSLRLRCAASGNIFDRYAMGWYRQAPGKERELVAAISWSDGTTYYADSVKGRFTISRDNAKNTVYLQMNTLKPEDTAVYNCAGVYTYPLGYYHYTYDDWGQGTQVSVSS”, the “polyreactivity (PSR sort gate)” value is given as “low polyreactivity”.

As to “QVQLVESGGGLVQAGGSLRLRCAASGRIFDWYALGWNRQAPGQERELVAAITSGGSTYYADSVKGRFTISRDNAKNTVYLQMNSLKTEDTAVYYCAADLYYWGDSDYWGQGTQVTVSS”, the “polyreactivity (PSR sort gate)” value was “low polyreactivity”.

Take “QVQLVESGGGLVQAGGSLRLRCAASGRIFGRYAMGWYRQAPGKERELVASISRGGSTNYADSVKGRFTISLDNAKNTVYLQMNSLKPEDTAVFYFAKSGGVGGDDRVGSWGQGTQVTVSS”: the “polyreactivity (PSR sort gate)” value is listed as “low polyreactivity”.

Regarding “QVQLVESGGGLVQAGGSLRLRCAASGRIFSTYAMGWYRQAPGKERALVAAINKIGGSTYYADSVKGRFTISRDNAKNTVYLQMNSLKPEDTAVYYCAADAPFYPVRRYYYWGQGTQVTVSS”, the “polyreactivity (PSR sort gate)” value was “low polyreactivity”.

“QVQLVESGGGLVQAGGSLRLRCAASGRIFTYYAMGWYRPAPGKERELVAAISWSGGSTYYADSVKGRFTISRDNAKNTVYLQMNSLKPEDTAVYYCNAVYPSVYPVSTRYYWGQGTQVTVSS”: the “polyreactivity (PSR sort gate)” value is on record as “high polyreactivity”.

Take “QVQLVESGGGLVQAGGSLRLRCAASGRIFWSNAMGWYRQAPGKERELVAAISSGGSTNYADSEKGRFTISRDNAKNTVYLQMNSLKPEDTEVYYCATRGIQRGFSRWGGLDYWGQVTQVTVSS”: the “polyreactivity (PSR sort gate)” value was “low polyreactivity”.

As to “QVQLVESGGGLVQAGGSLRLRCAASGRNFVANGKGWYRQAPGKERELVAAINDGDDTYYADSVKGRFTISRDNAQNTVYLQMNSLKPEDTEVYYCAADIIYGYEVYTYTSDYWGQGTQVTVSS”, the “polyreactivity (PSR sort gate)” value is recorded as “low polyreactivity”.

On to “QVQLVESGGGLVQAGGSLRLRCAASGRTFDKYAMGWYRQAPGKERELVAAISYDAGRTYYADSVKGRFTISRDNAKNTVYLQMNSLKPEDNAVYFCNAVRFRGFGWGQGTQVTVSS”, for which the “polyreactivity (PSR sort gate)” value was “high polyreactivity”.

In the case of “QVQLVESGGGLVQAGGSLRLRCAASGRTFGRYAMGWYRQAPGKERELVAAISTSGGSTFYADSVKGRITISRDNAKNTVYLLMNSLKPEDTAVYYCAADYRRFWGRYGYWGQGTQVTVSS”, the “polyreactivity (PSR sort gate)” value is “high polyreactivity”.

Regarding “QVQLVESGGGLVQAGGSLRLRCAASGRTFHAYVMGWYIQAPVKERELVADISSGGDTYADSVKGRFTISRDNAKNTVYLQMNSLKPEDTAVYYCAVDLIQDESGYWGQGTQVTVSS”, the “polyreactivity (PSR sort gate)” value is “low polyreactivity”.

Regarding “QVQLVESGGGLVQAGGSLRLRCAASGRTFRRNAMGWYRQAPGKERELVAGISWGGGSTYYADSVKGRFTISRDNAKNTVYLQMNSLKPEDTAVYYCAASGYFYRAYGYWGQGTQVTVSS”, the “polyreactivity (PSR sort gate)” value is listed as “high polyreactivity”.

With “QVQLVESGGGLVQAGGSLRLRCAASGRTIASYTMGWYRQAPGKEREWVAAISKSGGSTYYADSVKGRFTNSRDNAKNTVYLQMNSLKPEDTAVYYCAKRRSGNVRKYDYWGQGTQVTVSS”, the “polyreactivity (PSR sort gate)” value is on record as “high polyreactivity”.

With “QVQLVESGGGLVQAGGSLRLRCAASGRTVVYYAMGWSRPAAGKETEFVATITSSGGSTYYADSVKGRFTISRDNAKNSVYLQMNSLKPEDTAVNYCAASPNIGYSKVSKYYYRGQGTQVTVSS”, the “polyreactivity (PSR sort gate)” value is “high polyreactivity”.

As to “QVQLVESGGGLVQAGGSLRLRCAASGSIFFHNAMGWYRQAPVKERELVATINRSDGTYYADSVKGRFTISRDNAKNTVYFQMNSLKPEDTAVYYCAVDHSFNDELDYWGQGTQVTVSS”, the “polyreactivity (PSR sort gate)” value was “low polyreactivity”.

With “QVQLVESGGGLVQAGGSLRLRCAASGSIFKGYAMGSYRQAPGKERELVAAIRGSGGSSYYADSVKGRFTISRDNAKNTVYFQLISLTPEDTAFYYCAAVAYTGGPRKLGFNYWGQATQVTVSS”, the “polyreactivity (PSR sort gate)” value is on record as “high polyreactivity”.
